# Reference: patent publication US20180185504A1 (Regeneron, published 2018)
# B1: H1H6958N2 (antibody, human IgG1, V domains shown)
# VH: QVQLVESGGGVVQPGRSLRLSCGASGFTFRNYGMQWVRQGPGKGLEWVTLISFDGNDKYYADSVKGRFTISRDNSKNTLFLQMNSLRTEDTAVYYCARGGDFDYWGQGTLVTVSS
# VL: DIQMTQSPSSLSASVGDRVTITCRASQDIRKDLGWYQQKPGKAPKRLIYAASSLHSGVPSRFSGSGSGTEFTLTISSLQPEDFATYYCLQHNSYPMYTFGQGTKLEIK
# notes: Tested with human IgG1 Fc (H1H); also called HIH6958N2
# B2: H1H6958N2-DM1 (antibody, human IgG1, V domains shown)
# VH: B1 VH
# VL: B1 VL
# modifications: maytansinoid DM1 conjugated to the antibody through an SMCC linker; conjugation sites not stated
# notes: also called H1H6958N2-SMCC-DM1; PRLR ADC
# B3: H1H6958N2 (antibody, V domains shown)
# VH: B1 VH
# VL: B1 VL
# notes: In the H/D exchange experiment the antibody was covalently attached to NHS agarose beads; also called H2M6958N2 (same variable domains, mouse IgG2 Fc); anti-PRLR antibody H1H6958N2
# B4: VV6A9-5 (antibody, V domains shown)
# VH: EVQLVESGGGLVQPGRSLRLSCAASGFTFDDYALHWVRQAPGKGLEWVSGVSWNGGRIGYADSVKGRFTISRDNAKNSLFLQMNSLRVEDTALYYCAKGRDAFDIWGQGTLVTVSS
# VL: DIQMTQSPSSVSASVGDRVTITCRASQGISSWLAWYQQKPGKAPKLLIYAASSLQSGVPSRFSGSGSGTDFTLTISSLQPEDFATYYCQHAYSFPYTFGQGTKLEIK
# Assays:
# [1] = biological target: T1, dimeric form of cynomolgus monkey (Macaca fascicularis) PRLR (Example 12 ELISA) (cynomolgus monkey (Macaca fascicularis)); experiment: blocking ELISA: 10 nM dimeric monkey PRLR premixed with mAb (520 pM to 30 nM), plate-coated human PRL
# T1 construct: also called monkey PRLR
# Protocol: (§1) Dimeric forms of human or cynomolgus monkey (Macaca fascicularis) PRLR and monomeric human PRL were used in this assay. […] After 1-hour incubation, captured PRLR was detected with HRP-conjugated goat anti-Fcγ antibody and visualized with TMB colorimetric substrate by measuring absorbance at 450 nm. […] Mixtures were then added to plates coated with in 1 μg/mL PRL and captured PRLR was detected as described above. Data were analyzed using a four-parameter logistic equation over an 11-point response curve in GraphPad Prism software and IC₅₀ values were calculated.
# [2] = biological target: T2, dimeric form of human PRLR (Example 12 ELISA) (human); experiment: blocking ELISA: 10 nM dimeric human PRLR premixed with mAb (520 pM to 30 nM), plate-coated human PRL
# T2 construct: PRLR'
# T2 sequence (P16471 whole entry, looked up): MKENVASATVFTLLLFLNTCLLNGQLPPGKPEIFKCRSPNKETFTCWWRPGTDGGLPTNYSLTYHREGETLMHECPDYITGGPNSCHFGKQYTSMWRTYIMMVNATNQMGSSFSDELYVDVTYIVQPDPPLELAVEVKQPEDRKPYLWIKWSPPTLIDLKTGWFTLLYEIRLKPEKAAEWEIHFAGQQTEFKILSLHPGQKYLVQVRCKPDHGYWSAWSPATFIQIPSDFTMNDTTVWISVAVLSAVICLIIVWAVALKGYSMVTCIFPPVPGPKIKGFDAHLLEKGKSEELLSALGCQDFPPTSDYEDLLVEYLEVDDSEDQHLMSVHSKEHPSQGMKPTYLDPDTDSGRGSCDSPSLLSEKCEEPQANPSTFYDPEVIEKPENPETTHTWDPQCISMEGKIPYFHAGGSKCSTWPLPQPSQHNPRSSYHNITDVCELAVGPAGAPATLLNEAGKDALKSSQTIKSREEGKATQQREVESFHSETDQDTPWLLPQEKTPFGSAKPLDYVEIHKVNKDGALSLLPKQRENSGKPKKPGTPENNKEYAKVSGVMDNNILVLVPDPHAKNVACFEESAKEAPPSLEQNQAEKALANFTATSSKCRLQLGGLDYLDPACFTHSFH
# Protocol: as §1
# [3] = biological target: T3, human prolactin receptor (PRLR) on cells (human, UniProt P16471 25-622); experiment: cell-based or functional assay
# T3 sequence: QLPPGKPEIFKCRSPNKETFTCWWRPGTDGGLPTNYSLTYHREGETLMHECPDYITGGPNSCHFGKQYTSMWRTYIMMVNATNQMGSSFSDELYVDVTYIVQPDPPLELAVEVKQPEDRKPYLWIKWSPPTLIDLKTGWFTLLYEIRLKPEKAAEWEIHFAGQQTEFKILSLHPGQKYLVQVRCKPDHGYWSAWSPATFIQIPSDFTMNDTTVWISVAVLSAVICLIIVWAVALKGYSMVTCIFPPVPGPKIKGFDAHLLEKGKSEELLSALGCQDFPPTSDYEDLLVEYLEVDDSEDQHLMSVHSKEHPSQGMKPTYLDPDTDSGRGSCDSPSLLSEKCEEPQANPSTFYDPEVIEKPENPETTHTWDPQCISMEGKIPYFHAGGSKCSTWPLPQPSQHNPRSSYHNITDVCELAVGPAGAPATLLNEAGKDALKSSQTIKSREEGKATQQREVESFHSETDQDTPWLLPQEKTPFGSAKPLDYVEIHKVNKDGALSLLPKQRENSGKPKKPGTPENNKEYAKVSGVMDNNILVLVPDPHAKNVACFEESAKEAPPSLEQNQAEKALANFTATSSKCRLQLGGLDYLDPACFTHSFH
# [4] = biological target: T4, mouse PRLR with an HA tag on HEK293 cells (mouse, UniProt Q08501 20-608); experiment: FACS on HEK293/mPRLR cells
# T4 construct: whole, on cells; also called HEK293/mPRLR; rodent PRLR; not shown: HA tag
# T4 sequence (looked up): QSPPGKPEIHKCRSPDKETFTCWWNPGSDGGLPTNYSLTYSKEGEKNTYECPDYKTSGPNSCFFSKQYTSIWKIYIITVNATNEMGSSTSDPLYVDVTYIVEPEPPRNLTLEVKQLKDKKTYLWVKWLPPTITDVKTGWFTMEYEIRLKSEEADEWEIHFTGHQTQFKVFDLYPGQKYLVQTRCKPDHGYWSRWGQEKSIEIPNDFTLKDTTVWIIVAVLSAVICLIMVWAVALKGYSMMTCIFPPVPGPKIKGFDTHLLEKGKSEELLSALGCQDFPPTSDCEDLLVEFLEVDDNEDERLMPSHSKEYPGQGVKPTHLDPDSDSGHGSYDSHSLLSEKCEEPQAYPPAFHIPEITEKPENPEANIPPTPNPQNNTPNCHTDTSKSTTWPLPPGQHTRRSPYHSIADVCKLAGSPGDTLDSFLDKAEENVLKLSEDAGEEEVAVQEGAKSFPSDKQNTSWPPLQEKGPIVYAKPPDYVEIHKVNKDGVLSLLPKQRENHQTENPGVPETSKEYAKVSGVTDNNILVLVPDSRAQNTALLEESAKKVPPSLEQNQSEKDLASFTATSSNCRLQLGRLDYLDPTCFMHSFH
# [5] = biological target: T5, hPRLR-mmH (recombinant extracellular domain of hPRLR with a C-terminal myc-myc-hexahistidine tag) (human); experiment: H/D exchange MS; hPRLR-mmH bound to H1H6958N2 on NHS agarose beads
# T5 construct: the entry includes the myc-myc-His6 tag; also called truncated form of PRLR
# T5 chain: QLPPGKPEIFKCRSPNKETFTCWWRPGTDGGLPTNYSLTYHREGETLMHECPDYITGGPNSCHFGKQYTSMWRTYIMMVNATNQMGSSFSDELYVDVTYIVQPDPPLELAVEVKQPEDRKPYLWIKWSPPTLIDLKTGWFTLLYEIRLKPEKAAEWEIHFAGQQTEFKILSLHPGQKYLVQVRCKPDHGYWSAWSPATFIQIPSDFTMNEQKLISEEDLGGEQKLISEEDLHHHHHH
# [6] = biological target: T1, dimeric form of cynomolgus monkey …; experiment: blocking ELISA: 10 nM dimeric monkey PRLR premixed with ADC (520 pM to 30 nM), plate-coated human PRL
# Protocol: as §1
# [7] = biological target: T2, dimeric form of human PRLR (Example 12 …); experiment: blocking ELISA: 10 nM dimeric human PRLR premixed with ADC (520 pM to 30 nM), plate-coated human PRL
# Protocol: as §1
# [8] = biological target: T6, hPRLR-mmH (recombinant extracellular domain of hPRLR with a C-terminal myc-myc-hexahistidine tag) (human); experiment: H/D exchange; hPRLR-mmH captured on H1H6958N2 agarose beads
# T6 construct: also called truncated form of PRLR
# T6 chain: T5 chain
# IL-6R = biological target: T7, IL-6R (human, UniProt P08887 20-468); experiment: flow cytometry, anti-IL-6R antibody on KG-1 cells (endogenous IL-6R), PE anti-human secondary
# T7 construct: whole, on cells
# T7 sequence (looked up): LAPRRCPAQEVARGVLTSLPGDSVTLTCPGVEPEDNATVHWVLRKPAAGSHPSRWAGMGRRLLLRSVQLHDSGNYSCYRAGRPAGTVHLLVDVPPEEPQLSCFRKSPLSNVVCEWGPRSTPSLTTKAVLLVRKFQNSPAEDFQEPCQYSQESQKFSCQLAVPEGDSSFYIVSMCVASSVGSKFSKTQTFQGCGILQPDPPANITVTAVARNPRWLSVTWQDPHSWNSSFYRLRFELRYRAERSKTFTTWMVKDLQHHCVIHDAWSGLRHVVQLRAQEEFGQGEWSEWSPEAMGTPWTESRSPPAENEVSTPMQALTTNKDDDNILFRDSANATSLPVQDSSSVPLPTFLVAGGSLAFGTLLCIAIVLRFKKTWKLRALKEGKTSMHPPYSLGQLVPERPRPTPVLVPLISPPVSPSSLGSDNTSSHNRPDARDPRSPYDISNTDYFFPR
binder,measurement,setting,value
B1,IC50,[1],5.8 nM
same,IC50,[2],5 nM
same,"IC50, block of PRL-induced STAT5-luciferase activity (2 nM PRL)",[3],0.4 nM
same,binding result,[4],no binding
same,binding result,[5],binds
B2,IC50,[6],4.2 nM
same,IC50,[7],4.4 nM
same,"IC50, block of PRL-induced STAT5-luciferase activity (2 nM PRL)",[3],0.4 nM
B3,binding result,[8],binds
B4,Fold Over Background (FACS MFI above isotype control),IL-6R,7 fold over background
